In the assay the target is T1, calmodulin (calcium-loaded: holo-CaM) (UniProt P0DP23).
T1 construct: also called apo-CaM (without calcium)
In words: other fluorescence titration + ITC. To be noted: both partners purified.

B1: P454 H477S-I479A peptide (peptide)
peptide: ASAHWGQRALQGAQAVAAAQRLVSAAALMTQ
Consider B1, for which the “fold decrease of affinity for CaM against P454” value (shortened to “fold decrease of affinity”) is approximately 20 fold.

B2: P454 R12E peptide (P454 with R461E and R474E) (peptide)
peptide: ASAHWGQEALQGAQAVAAAQELVHAIALMTQ
notes: also called TAMRA-P454 R12E
Consider B2, for which the Kd came out at 22.7 µM.

B3: P454 W458A-L463A peptide (peptide)
peptide: ASAHAGQRAAQGAQAVAAAQRLVHAIALMTQ
As to B3, the “fold decrease of affinity” value was 4 fold.

B4: P454 L475A-H477S-I479A peptide (peptide)
peptide: ASAHWGQRALQGAQAVAAAQRAVSAAALMTQ
Consider B4, for which the “fold decrease of affinity” value is approximately 20 fold.
